B1: Tankyrase, amino acids 603-725 (enzyme, human, UniProt O95271 603-725, looked up)
chain: HLQTCRLLLSYGSDPSIISLQGFTAAQMGNEAVQQILSESTPIRTSDVDYRLLEASKAGDLETVKQLCSSQNVNCRDLEGRHSTPLHFAAGYNRVSVVEYLLHHGADVHAKDKGGLVPLHNAC
notes: range 603-725
B2: Insulin-Regulated Membrane-Spanning Aminopeptidase (IRAP), amino acids 750-1026 (enzyme, human, UniProt Q9UIQ6 750-1025, looked up)
chain: FDLINYLGNENHTAPITEALFQTDLIYNLLEKLGYMDLASRLVTRVFKLLQNQIQQQTWTDEGTPSMRELRSALLEFACTHNLGNCSTTAMKLFDDWMASNGTQSLPTDVMTTVFKVGAKTDKGWSFLLGKYISIGSEAEKNKILEALASSEDVRKLYWLMKSSLNGDNFRTQKLSFIIRTVGRHFPGHLLAWDFVKENWNKLVQKFPLGSYTIQNIVAGSTYLFSTKTHLSEVQAFFENQSEATFRLRCVQEALEVIQLNIQWMEKNLKSLTWWL
notes: range 750-1026; also called C-terminal portion of IRAP
B3: PP5, amino acids 1-150 (enzyme, human, UniProt P53041 1-150, looked up)
chain: MAMAEGERTECAEPPRDEPPADGALKRAEELKTQANDYFKAKDYENAIKFYSQAIELNPSNAIYYGNRSLAYLRTECYGYALGDATRAIELDKKYIKGYYRRAASNMALGKFRAALRDYETVVKVKPHDKDAKMKYQECNKIVKQKAFER
notes: range 1-150; also called Protein phosphatase 5

Legend:
Experiment in all cases: yeast two-hybrid
PP5, amino acids 1-150 = molecular target: B3
Description: (§1) The new construct was selected directly in the yeast strain PNY200 for its ability to drive tryptophane synthesis (genotype of this strain: […] trp1-901 leu2-3,112 ura3-52 his3-200 ade2 gal4Δ gal80). In these yeast cells, the bait was produced as a C-terminal fusion protein with the DNA binding domain of the transcription factor Ga14 (amino acids 1 to 147). Prey libraries were transformed into the yeast strain BK100 (genotype of this strain: MATα trp1-901 leu2-3,112 ura3-52 his3-200 gal4Δ gal80 LYS2::GAL-HIS3 GAL2-ADE2 met2::GAL7-lacZ), and selected for the ability to drive leucine synthesis. In these yeast cells, each cDNA was expressed as a fusion protein with the transcription activation domain of the transcription factor Ga14 (amino acids 768 to 881) and a 9 amino acid hemagglutinin epitope tag. PNY200 cells (MATα mating type), expressing the bait, were then mated with BK100 cells (MATa mating type), expressing prey proteins from a prey library. The resulting diploid yeast cells expressing proteins interacting with the bait protein were selected for the ability to synthesize tryptophan, leucine, histidine, and adenine. DNA was prepared from each clone, transformed by electroporation into E. coli strain KC8 (Clontech KC8 electrocompetent cells, Catalog No. C2023-1), and the cells were selected on ampicillin-containing plates in the absence of either tryptophane (selection for the bait plasmid) or leucine (selection for the library plasmid). DNA for both plasmids was prepared and sequenced by the dideoxynucleotide chain termination method. The identity of the bait cDNA insert was confirmed and the cDNA insert from the prey library plasmid was identified using the BLAST program to search against public nucleotide and protein databases. Plasmids from the prey library were then individually transformed into yeast cells together with a plasmid driving the synthesis of lamin and 5 other test proteins, respectively, fused to the Ga14 DNA binding domain. Clones that gave a positive signal in the β-galactosidase assay were considered false-positives and discarded. […] Clones that gave a positive signal in the β-galactosidase assay were considered true positives.

[1] = molecular target: T1, β-Spectrin, amino acids 1592-2096 (human, UniProt Q01082 1592-2096)
T1 construct: range 1592-2096; also called non-erythrocytic beta-spectrin; beta spectrin
Description: as §1

[2] = molecular target: T2, HSP89, amino acids 537-700 (human, UniProt P07900 537-700)
T2 construct: range 537-700
Description: as §1

T2 sequence (P07900 537-700): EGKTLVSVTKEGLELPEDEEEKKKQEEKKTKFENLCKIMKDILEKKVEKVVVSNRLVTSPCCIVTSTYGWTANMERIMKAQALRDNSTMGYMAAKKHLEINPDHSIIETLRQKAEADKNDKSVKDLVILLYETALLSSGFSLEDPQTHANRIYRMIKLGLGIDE
T1 sequence (Q01082 1592-2096): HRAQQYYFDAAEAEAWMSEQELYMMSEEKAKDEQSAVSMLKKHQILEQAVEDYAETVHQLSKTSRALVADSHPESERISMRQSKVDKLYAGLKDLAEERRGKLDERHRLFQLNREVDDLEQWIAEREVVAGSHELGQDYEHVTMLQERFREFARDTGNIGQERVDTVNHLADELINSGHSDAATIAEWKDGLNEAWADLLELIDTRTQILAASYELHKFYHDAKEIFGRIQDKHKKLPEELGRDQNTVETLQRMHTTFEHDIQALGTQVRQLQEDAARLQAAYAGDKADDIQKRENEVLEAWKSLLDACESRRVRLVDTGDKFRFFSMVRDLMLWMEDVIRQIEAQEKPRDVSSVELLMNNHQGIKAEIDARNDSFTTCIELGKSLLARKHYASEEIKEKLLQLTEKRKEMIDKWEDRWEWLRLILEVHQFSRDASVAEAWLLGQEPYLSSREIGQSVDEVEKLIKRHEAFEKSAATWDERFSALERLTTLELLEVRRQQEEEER

B1: binds (PP5, amino acids 1-150).

B2: binds [1].

B3: binds [2].

— US20040214255A1 (MYRIAD GENETICS, published 2004)
